Data taken from article PMC11259198.
One block for each substance: values may come before it.

What was measured:
Assay in all cases: SEC
[1] = biological target: globular N-terminal domain of human apolipoprotein A-I (residue fragment 1–184), Glu34Lys (human)
[2] = biological target: globular N-terminal domain of human apolipoprotein A-I (residue fragment 1–184), Leu159Arg (human)
[3] = biological target: globular N-terminal domain of human apolipoprotein A-I (residue fragment 1–184), Phe71Tyr (human)
[4] = biological target: globular N-terminal domain of human apolipoprotein A-I (residue fragment 1–184), wild type (human)

- stoichiometry N [1]: 2
Substance: globular N-terminal domain of human apolipoprotein A-I (residue fragment 1–184), Glu34Lys (domain or fragment)

- stoichiometry N [2]: 2
Substance: globular N-terminal domain of human apolipoprotein A-I (residue fragment 1–184), Leu159Arg (domain or fragment)

- stoichiometry N [3]: 2
Substance: globular N-terminal domain of human apolipoprotein A-I (residue fragment 1–184), Phe71Tyr (domain or fragment)

- stoichiometry N [4]: 2
Substance: globular N-terminal domain of human apolipoprotein A-I (residue fragment 1–184), wild type (domain or fragment)
